Test results: patent US20150252148A1

System: Dynamic MAPTrix™ Laminin

type IV bacterial collagenase
enzymatic digestion monitored by SDS-PAGE (25:1 substrate:collagenase, 2 h, 37° C.): the apparent molecular weight of various fractions from disgested Dynamic MAPTrix™ Laminin on a SDS-PAGE gel was 29, 18, and 12 kDa
